Experimental data as given in patent US20140308271A1 (GLENMARK PHARMACEUTICALS S A, published 2014).
Substitutions are numbered along the chain they refer to.

T1: recombinant human TL1A-his (processed secreted human TL1A with an N-terminal his-tag) (human, UniProt O95150 72-251)
T1 construct: also called recombinant histidine tagged human TL1A; histidine-tagged human TL1A
T1 sequence: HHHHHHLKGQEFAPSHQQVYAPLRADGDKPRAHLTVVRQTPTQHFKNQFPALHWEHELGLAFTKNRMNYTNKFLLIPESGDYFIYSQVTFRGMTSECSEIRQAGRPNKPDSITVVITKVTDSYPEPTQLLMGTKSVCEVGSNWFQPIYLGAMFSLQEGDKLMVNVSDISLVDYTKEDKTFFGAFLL

T2: extracellular part of human (homo sapiens) TL1A protein (human, UniProt O95150 57-251)
T2 construct: also called human TL1A
T2 sequence: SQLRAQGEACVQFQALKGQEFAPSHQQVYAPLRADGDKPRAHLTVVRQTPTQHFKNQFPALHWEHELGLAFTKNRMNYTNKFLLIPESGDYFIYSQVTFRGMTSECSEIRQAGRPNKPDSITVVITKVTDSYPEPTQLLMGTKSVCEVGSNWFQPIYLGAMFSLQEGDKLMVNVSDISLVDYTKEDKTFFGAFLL

T3: extracellular part of rat (ratus norvegicus) TL1A protein (rat, UniProt Q8K3Y7 61-252)
T3 construct: also called rat TL1A
T3 sequence: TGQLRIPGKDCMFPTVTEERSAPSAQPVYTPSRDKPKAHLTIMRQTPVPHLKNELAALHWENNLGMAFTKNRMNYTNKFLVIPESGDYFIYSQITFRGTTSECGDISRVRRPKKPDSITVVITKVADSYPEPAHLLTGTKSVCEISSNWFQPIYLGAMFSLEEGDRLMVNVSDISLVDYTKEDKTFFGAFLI

T4: extracellular part of cynomologus monkey (macaca fascicularis) TL1A protein (cynomolgus monkey (macaca fascicularis), UniProt O95150 57-251 (human entry))
T4 construct: also called cyno TL1A; cynomologus monkey TL1A
T4 chain: T2 sequence with F13L, A15D, F54L, I93V

B1: 5G6 chimeric antibody (murine 5G6 variable domains fused to human IgG1 heavy chain constant domains and a human kappa constant domain) (antibody, V domains shown)
VH: QVQLQQPGSVLVRPGASVKVSCKASGYTFTSSWMHWAKQRPGQGLEWIGEIHPNSGGTNYNEKFKGKATLTVDTSSSTAYVDLSSLTSEDSAVYYCARGDYYGYVSWFAYWGQGTLVTVSS
VL: DIQMNQSPSSLSASLGDTITITCHASQNINVLLSWYQQKPGNIPKLLIYKASNLHTGVPSRFSGSGSGTGFTFTISSLQPEDIATYYCQQGQSYPYTFGGGTKLEIKR
notes: Human IGHG1 / kappa chimera; also called Chimera; parental 5G6
B2: VH4/VL1 humanized 5G6 antibody (antibody, human IgG1, kappa, V domains shown)
VH: QVQLVQSGAEVKKPGASVKVSCKASGYTFTSSWMHWARQAPGQGLEWIGEIHPNSGGTNYAQKFQGRVTMTVDTSISTAYMELSRLRSDDTAVYYCARGDYYGYVSWFAYWGQGTLVTVSS
VL: B1 VL with N5T, L15V, T18R, I19V, H24Q, S34N, N42K, I43A, G70D, G100Q
B3: VH2/VL2 humanized 5G6 antibody (antibody, human IgG1, kappa, V domains shown)
VH: B2 VH with V68A, M70L, I76S
VL: B1 VL with L15V, T18R, I19V, H24Q, N42K, I43A, G70D, G100Q
B4: VH3/VL1 humanized 5G6 antibody (antibody, human IgG1, kappa, V domains shown)
VH: B2 VH with V68A
VL: B1 VL with N5T, L15V, T18R, I19V, H24Q, S34N, N42K, I43A, G70D, G100Q

Assays:
[1] = biological target: T1, recombinant human TL1A-his (processed …); test: SPR (BIAcore 2000), antibody captured on protein-A, his-tagged human TL1A as analyte
Procedure: Kinetic binding affinity constants (KD) were measured on protein-A captured antibody using recombinant histidine tagged TL1A as analyte. Measurements were conducted on a BIAcore 2000 (GE Healthcare—BIAcore, GE Healthcare Europe GmbH, Glattbrugg, Switzerland) at room temperature, and analyzed with the BiaEvaluation software (BIAcore; v4.1. GE Healthcare Europe GmbH).
Following this capture step, the recombinant histidine tagged human TL1A was injected at different concentrations (1.25 to 125 nM) on the flow-path 1 and 2 (flow-path 1 being used as reference) at a 30 μl/min flow rate. After each binding event, surface was regenerated with glycine buffer pH 1.5 injected for 20 sec (30 μL/min).
Measurements (sensorgram: fc2-fc1) were best fitted with a 1:1 analyte model without mass transfer. To account for the experimental variations in protein-A captured antibody at the beginning of each measurement, the Rmax value was set to local in all fits. Dissociation times were of at least 300-600 seconds. Measurements were performed in duplicate and included zero-concentration samples for referencing. The Chi2 value represents the sum of squared differences between the experimental data and reference data at each point; while the plots of residuals indicate the difference between the experimental and reference data for each point in the fit. Both Chi2 and residual values were used to evaluate the quality of a fit between the experimental data and individual binding models.

[2] = biological target: T2, extracellular part of human (homo …); test: ELISA on coated extracellular part of TL1A (2 µg/mL), dose dilution of chimeric 5G6, HRP anti-human IgG
Procedure: (§1) The reactivity of the parental 5G6 antibody (produced as a chimeric antibody with Human Fc) on the extracellular part of TL1A from diverse species was tested by ELISA. The extracellular part of TL1A protein corresponding to human (homo sapiens), rat (ratus norvegicus), mouse (mus musculus) and cynomologus monkey (macaca fascicularis) sequences (SEQ ID NOS: 38, 39, 40 and 41, respectively) was immobilized on high binding 96-well plates (Costar, USA; distributor VWR AG, Nyon, Switzerland) overnight at a concentration of 2 μg/mL at 4° C. in PBS. Plates were blocked with 2% BSA albumin (BSA, Sigma-Aldrich Chemie, Buchs, Switzerland) at RT for one hour. The blocking solution was removed and a dose dilution of 5G6 antibody was applied to the plates. Plates were incubated at RT for 60 minutes, washed six times with PBS 0.01% Tween-20 and the TMB substrate (Bio-rad Laboratories AG, Reinach, Switzerland) was added to the plates. […] The plates were read for absorbance at 450 nm by a microplate reader (Biotek, USA; distributor: WITTEC AG, Littau, Switzerland).

[3] = biological target: T3, extracellular part of rat (ratus …); test: as above
Procedure: as §1

[4] = biological target: T4, extracellular part of cynomologus …; test: as above
Procedure: as §1

[5] = biological target: extracellular part of mouse (mus musculus) TL1A protein (mouse); test: as above

Row | Binder | Kd [1] [pM] | EC50 (read off the curve) [2] [ng/mL] | EC50 (read off the curve) [3] [ng/mL] | EC50 (read off the curve) [4] [ng/mL] | EC50 (read off the curve) [5] [ng/mL]
1 | B1 | 728 | ~3 | ~8 | ~3 | 20
2 | B2 | 681 | – | – | – | –
3 | B3 | 857 | – | – | – | –
4 | B4 | 249 | – | – | – | –
